Source: the supplement of paper PMC12764529
± gives the half width of the 95% confidence interval.

Assay: folding stability dG unfold (combined trypsin and chymotrypsin); higher = more stable
Summary of the method: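 Only designs with AlphaFold2 dimer inter-PAE above 15 were retained; each was a mini-protein under 80 residues with no cysteine, in a PA-tagged cDNA display construct. After digestion with trypsin and chymotrypsin and sequencing, K50 was inferred by Bayesian fitting of counts, and unfolding free energy was derived per protease or combined against a sequence-predicted unfolded-state K50 and a shared folded-state K50.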

| Sequence | folding stability dG unfold |
| --- | --- |
| SAGGSPYRIKFEFPNGPKFEFPVKITEIQPPNGNLYANITAQDDGKPHELMFPAPNIRPVEIEPPPSAGGSA [r2_319_TrROS] | -0.414 ± 0.66 kcal/mol |
| SAGGSAGGMPSDTPFTITKITSVTLNDGRGTTKAVVSYPDGSLVTISSSELERLTKENPNLNLVSAGGSAGG [r6_78_JUSTAS] | -0.0536 ± 0.13 kcal/mol |
| SAGGSAGGNVKIEVEPGPNGNYLIKIRMPNGTKVEHQFDSPEDAEERAKDFAEEFPPNAQVEIWSAGGSAGG [r6_464_TrROS] | < -1 kcal/mol |
| SAGGGSSMVTTVIPVLRTETLFDENGNVIGPRTTVETIELEAEVPLPPRPPLVFSFVPPELRDPAVLLSAGG [r13_508_JUSTAS] | < -1 kcal/mol |
| SAGGSAGGSAGKIKAYAEKDVPAEIVAKAIEEEIREAFPDNPEEIKGIEVEPDGFLSETISAGGSAGGSAGG [r17_43_TrMRF] | < -1 kcal/mol |
| SAITIMIPPNQTLEEIADELGFPGIKDVKHEPFEPGYYPATFEFPGDPDREIEIMFNPEPDWMMVEVEDSAG [r14_713_TrROS] | 0.0271 ± 0.13 kcal/mol |
| SAGGSAGGSAGERIPIKVSIHDPDGRMVPMEIKEIDPDDGTIEVKLPGLPPGIRSIHIMLSAGGSAGGSAGG [r17_260_TrROS] | < -1 kcal/mol |
| SAGGRGQELTIPNGAPIEDIEELAKKDPDYQVKITEIKMQKPKKDPNGKKRPVPMWMKITLYPAGEKSAGGS [r8_172_TrROS] | < -1 kcal/mol |
| SAMEVTVTPLPDGTTRVTLPDGVEITHPAPGTGEPVLVEVTEVPGTGTYRITIRSPAGGEELRELLVPVSAG [r14_975_JUSTAS] | 0.443 ± 0.091 kcal/mol |
| SAGGSAGGSAGGPSDVTLLEEEVEELPNGTIKTRYTFKLPNGELAEAESTTPLEGPFHHSAGGSAGGSAGGS [r10_532_JUSTAS] | -0.463 ± 0.26 kcal/mol |
| SAGGSAGGSAGPPTSILEVKPGGEVTIKEGGTPVTVPSSVPYINLPEGGSAGSVEVPPELSAGGSAGGSAGG [r11_647_JUSTAS] | -0.314 ± 0.31 kcal/mol |
| GMVLVRVELYRPDEEELVAEVEIPFPVPESLLENLSEEEREKLREEAEKAAEKLAEELGDVEVKPEIYTDLS [r1_115_TrMRF] | -0.317 ± 0.42 kcal/mol |
| SAGGSLVTELIENNPEFQALLESGTTLKVTFPGGLSGEIEVKNKSPEEIEKAILARNPGPVEIEITGSAGGS [r16_655_JUSTAS] | -0.192 ± 0.2 kcal/mol |
| SAGGSAGGSAGGKGWPTVEIPMPENGKPTPDSIEEIAEKFNMPNVEVEQSDDWHKIDVDSAGGSAGGSAGGS [r10_642_TrROS] | -0.295 ± 0.32 kcal/mol |
| SMNVKPFSSTISNPAVTVTTPITQPSSGEGTATLTIHRPESVTTTTHPVTDLQALIDSHAAGGVSLTGTSSA [r9_384_JUSTAS] | < -1 kcal/mol |
| SAGGLEAKITEIDEDGYLRIEIVDPETGELIAEIRIKIELPPPPPVPETEEVLDEDGRKRTVTRLYDRSAGG [r13_9_TrROS_Hall] | -0.406 ± 0.23 kcal/mol |
| SAGGSAGGSGMEKKTITITIPVPPDRDVTEEEIKETLKPLGYEEVDIEEIKPAGNSYTVTAVISAGGSAGGS [r20_79_JUSTAS] | -0.427 ± 0.52 kcal/mol |
| GKVLAVPVSYDPETGTVTVLEVKDTGTTLATLKPLPVVDISREELEKLAKGLAEENPELKELAEKLVEELAS [r1_330_TrMRF] | -0.197 ± 0.35 kcal/mol |
| IKIRFPDGHEITEIDDLSFSGNGYIEINVKVRNPENPQTQPMPIYIPVPPVPPPPVKIERDPGNGKWKYEDS [r1_411_TrROS] | -0.179 ± 0.33 kcal/mol |
| SAGDWMMVEMTVDFPPDQITEEEIKQALQEHFGEVEIDWNPGDGRIPITVYMPPGDMNKIQDALKEAGLSAG [r5_378_TrROS] | 0.218 ± 0.19 kcal/mol |
| SAGGELREKIEEAVEEAAKAGKPVVKTSEIEARLGRPLTPELLEYVREKGIIERDPKGSITITLPEDKSAGG [r13_188_JUSTAS] | < -1 kcal/mol |
| SAGGGEVKKVTYVVVIELPPDPETGEPHPLPLVLEREYPADDPEAVESDIKKALDEIDIPEEAKEALSAGGS [r16_40_TrMRF] | 0.123 ± 0.32 kcal/mol |
| SAGGMGQEELENLPPEVVAGLLAEEALAEAERLGRPNEAVTVEVELGDVPLRIELTADGKIARIEAGSAGGS [r16_431_TrMRF] | < -1 kcal/mol |
| SAGGSAGGMKPTVEVRPVPPSARMVVTITLPGSGKKVTIPVPDAPAPEEPERVIEEALAYVKTSSAGGSAGG [r6_331_JUSTAS] | < -1 kcal/mol |

| Sequence | folding stability dG unfold |
| --- | --- |
| SAGGSAGGSAGGLKIQRFPDGNWYRIYLPNGNEHHIPMDEPIKVPNAKEPVKIEPVPPDDSAGGSAGGSAGG [r7_968_TrROS] | -0.961 ± 0.41 kcal/mol |
| SAGGRPTMTAEEAAIRLIKELGIPGVKDIKEVVAVVRGGDPDNKPEKGSAILIKAEVPAEEVERLKKESAGG [r13_552_TrMRF] | -0.299 ± 0.11 kcal/mol |
| SAGGSAMKVKSIHWQRHGDRPMVRIKIQNPDGKKRERNIPMDDPEKFKKEAKELAKEGKIKEIEPYSAGGSA [r15_575_TrROS] | < -1 kcal/mol |
| SAGGSAMKVATLKVGGVDHTVEITPLPDGSYPVTTTAEEGGETTTTVVPKSEVKKLEDLPPEYRLLSAGGSA [r15_629_JUSTAS] | < -1 kcal/mol |
| SAGGALAVKVEFDEEIPTATITYRAPVPGEGGAVDVPADEVAAAIAKALGLPDLEEVTVNVPAPDAPLSAGG [r13_327_JUSTAS] | -0.543 ± 0.22 kcal/mol |
| SAGGSMEIPLGETIPIFFDDVIIEIEPETHEIHVIAEDSEKALELIKNLPFPIPAGEVKELSPEEFSAGGSA [r2_418_TrMRF] | -0.364 ± 0.21 kcal/mol |
| SAGGSAGGSAGGIWIPGDDIKEALKKMPPDVTKHIFNPDEGRWIMIKVNDNKIDIEPWPSAGGSAGGSAGGS [r10_137_TrROS] | -0.748 ± 0.36 kcal/mol |
| SAGGSAGGSAKITIPASQITHVDLETGELLVDHPSGRPIIFRVDPDRPDLILVEDPSGLSLGSAGGSAGGSA [r18_418_TrMRF] | < -1 kcal/mol |
| SAGGSAGGSSMPLLTKETSESYDPVNNTKTTTERIEEPGSGKFVFTKTTTTYPDGTVTTTLVESAGGSAGGS [r12_115_JUSTAS] | -0.652 ± 0.35 kcal/mol |
| SAGGSAMTLEELKGMPIRSWWPGGQKIEMPIKKIDLNDPMFEIKFGGEPIKIPFNHPMRIEIQPPKSAGGSA [r15_355_TrROS] | -0.64 ± 0.27 kcal/mol |
| SAGGSAGGSAGNMKEVEFTIPGAPPDELADNLPPGIKDVEIERNPEARENGGYSIKAYVDSAGGSAGGSAGG [r11_1002_TrROS] | < -1 kcal/mol |
| SAGGSAFKELLKEIKEQLQQAPPGEQVEVPIPFPDGYPLRIEINPDENKIEVEYPNGEEEEFDIPPSAGGSA [r15_977_TrROS] | < -1 kcal/mol |
| SAGWKLKIESPNGAEIEINPESGMIDVKNPDNGQPWSVMIPPENPGEINIFNPGDGEPLQPFKIDEIEPSAG [r5_761_TrROS] | 0.111 ± 0.41 kcal/mol |
| SAGMEVTVTDPIPLDPTPDGVPDVKPELVEERAKAAGFTDEIESVDTTPKPDSVTTTVTHPTATLTAGSAGG [r19_398_JUSTAS] | < -1 kcal/mol |
| SAGGSAGGSIAPDEPLVLEVEVEEVVPGVGEVLLPEWIAEEFPDAVIEVETDGTPVKVTIYRPSAGGSAGGS [r12_900_TrMRF] | 0.0203 ± 0.076 kcal/mol |
| SAGGSAGGSATVIIMVDPDDIEEALKEAPPNSKVMIHNPDNGYMFEITPNKLEIVEPIPPGDSAGGSAGGSA [r18_246_TrROS] | -0.0908 ± 0.23 kcal/mol |
| SAGGSAGGSYPIFDKEKGKLDPGPPEKELDVVIKVKKDGKWYPIDLKLSKSDLIRFVKELEKDSAGGSAGGS [r20_148_TrMRF] | < -1 kcal/mol |
| SAGGSAMPKPKVEILKVEKTEDGTVKVPVKVEVTFEDGSKETVPATVTFEVEEGKPLGPEALKEAISAGGSA [r15_836_TrMRF] | < -1 kcal/mol |
| SAGGSAGGSAGGPKIDHVMLHRNPGNGRYNVTIKLRDPNGKPKDTIMVPMNDPEKILDALSAGGSAGGSAGG [r7_484_TrROS] | -0.652 ± 0.22 kcal/mol |
| SAGGSAGGSAGTIVTPTATYRIEKLPDKRVRIVVGDKEYEVRVGEPFYLPGGVPFEVLDESAGGSAGGSAGG [r11_147_TrMRF] | -0.299 ± 0.19 kcal/mol |
| SAGGSAGGTIIDRIKELFGPGMKINIQEHPSEPYYRIRIKNPGFGQKREIHVPPDSIEDILDQISAGGSAGG [r6_612_TrROS] | 0.202 ± 0.36 kcal/mol |
| SAGGSAGGSAGLVKLKDKNGKLITLEVKEVEVVEVKEVTLKPKPKPKKTLKLSEEELKKLSAGGSAGGSAGG [r17_484_TrROS_Hall] | -0.494 ± 0.25 kcal/mol |
| SAGGSAGGSDPVVIPVPMDDFSKETIKNFIDEAPDDNRPIQMNFPNGKPIYIQVEPDGDIKPVSAGGSAGGS [r12_1054_TrROS] | < -1 kcal/mol |
